In patent US20250057968A1, “ANTI-DLL3 ANTIBODY AND PHARMACEUTICAL USE THEREOF, AND ANTIBODY-DRUG CONJUGATE CONTAINING ANTI-DLL3 ANTIBODY” (Jiangsu Hengrui Pharmaceuticals Co., Ltd., priority 2021, published 2025):
Changes are numbered by the printed parent chain.

B1: hAb6L4H6 (antibody, human IgG1, kappa, V domains shown)
VH: EVQLVQSGSELKKPGASVKVSCKASGYTFTDYYMNWVRQAPGQGLEWMGIINPYSGVTIYNHKFKGRFVLSVDKSSNTAYLQISSLKAEDTAVYYCARQDSLLDYAMDYWGQGTTVTVSS
VL: DIQMTQSPSSLSASVGDRVTITCHASQGISGNMGWLQQKPGKAPKGLIYHGANLEDGVPSRFSGSGSGADYTLTISSLQPEDFADYYCVQYAQFPYTFGGGTKVEIKR
B2: hAb6L4H11: humanized antibody of mAb6: hAb6VH11 (SEQ ID NO: 42) + hAb6VL4 (SEQ ID NO: 48), constant regions SEQ ID NO: 28/29 (antibody, V domains shown)
VH: B1 VH with R38K
VL: DIQMTQSPSSLSASVGDRVTITCHASQGISGNMGWLQQKPGKAPKGLIYHGANLEDGVPSRFSGSGSGADYTLTISSLQPEDFADYYCVQYAQFPYTFGGGTKVEIK
modifications: constant regions SEQ ID 28/29; hAb6VH11; hAb6 VL4
B3: hAb6L4H13: humanized antibody of mAb6: hAb6VH13 (SEQ ID NO: 44) + hAb6VL4 (SEQ ID NO: 48), constant regions SEQ ID NO: 28/29 (antibody, V domains shown)
VH: B1 VH with R38K, V69A
VL: B2 VL
modifications: constant regions SEQ ID 28/29; hAb6VH13; hAb6 VL4
B4: hAb6L4H6: humanized antibody of mAb6: hAb6VH6 (SEQ ID NO: 37) + hAb6VL4 (SEQ ID NO: 48), constant regions SEQ ID NO: 28/29 (antibody, V domains shown)
VH: B1 VH
VL: B2 VL
modifications: constant regions SEQ ID 28/29; hAb6 VH6; hAb6 VL4
B5: ADC-2 (antibody, human IgG1, kappa, V domains shown)
VH: EVQLVESGGGLVKPGGSLRLSCAASGFTFSDSGMHWIRQAPGKGLEWVSYISSGSSTIHYADTVKGRFTISRDNAKNSLYLQMNSLRAEDTAVYYCASPLYYYGRSYNAVAYWGQGTTVTVSS
VL: DIQMTQSPSSLSASVGDRVTITCHASQNINVWLSWYQQKPGKVPKLLIYKASDLHTGVPSRFSGSGSGTDFTLTISSLQPEDVATYYCQQGQSYPLTFGGGTKVEIKR
modifications: linker-drug L-9 conjugated after TCEP reduction; sites not stated; linker-drug L-9 (ecteinascidin derivative) conjugated after TCEP reduction; sites not stated; DAR n=3.72-4.88 for the whole antibody
B6: hAb6L3H3: humanized antibody of mAb6: hAb6VH3 (SEQ ID NO: 34) + hAb6VL3 (SEQ ID NO: 47), constant regions SEQ ID NO: 28/29 (antibody, V domains shown)
VH: EVQLVQSGAEVKKPGASVKVSCKASGYTFTDYYMNWVRQAPGQRLEWIGIINPYSGVTIYNHKFKGRATLTVDKSANTAYMELSSLRSEDTAVYYCARQDSLLDYAMDYWGQGTTVTVSS
VL: B2 VL with A43S, P44F, D85T
modifications: constant regions SEQ ID 28/29; hAb6 VH3; hAb6 VL3
B7: hAb6L4H4: humanized antibody of mAb6: hAb6VH4 (SEQ ID NO: 35) + hAb6VL4 (SEQ ID NO: 48), constant regions SEQ ID NO: 28/29 (antibody, V domains shown)
VH: B6 VH with Q43K, I48M, A68V
VL: B2 VL
modifications: constant regions SEQ ID 28/29; hAb6 VH4; hAb6 VL4
B8: M6CHI (antibody, human IgG1, kappa, V domains shown)
VH: EVQLQQSGPVLVKPGASVKMSCKASGYTFTDYYMNWVKQSHGKSLEWIGIINPYSGVTIYNHKFKGKATLTVDKSSNTAYMELNSLTSEDSAVYYCARQDSLLDYAMDYWGQGTSVTVSS
VL: DILMTQSPSSMSVSLGDTVSITCHASQGISGNMGWLQQKPGKSFKGLIYHGANLEDGVPSRFSGSGSGADYSLTISSLESEDFADYYCVQYAQFPYTFGGGTKLEIKR
notes: murine variable regions on human IgG1 / kappa constant regions; also called chimeric antibody of mAb6

Key:
[1] = target: T1, Human DLL3 full-length protein on cells (human, UniProt Q9NYJ7 27-618); experiment: FACS on H1184 cells
T1 construct: H1184 and DMS53 express DLL3 themselves; The cell line is named under assay; also called H1184 cells; DLL3/H82
T1 sequence: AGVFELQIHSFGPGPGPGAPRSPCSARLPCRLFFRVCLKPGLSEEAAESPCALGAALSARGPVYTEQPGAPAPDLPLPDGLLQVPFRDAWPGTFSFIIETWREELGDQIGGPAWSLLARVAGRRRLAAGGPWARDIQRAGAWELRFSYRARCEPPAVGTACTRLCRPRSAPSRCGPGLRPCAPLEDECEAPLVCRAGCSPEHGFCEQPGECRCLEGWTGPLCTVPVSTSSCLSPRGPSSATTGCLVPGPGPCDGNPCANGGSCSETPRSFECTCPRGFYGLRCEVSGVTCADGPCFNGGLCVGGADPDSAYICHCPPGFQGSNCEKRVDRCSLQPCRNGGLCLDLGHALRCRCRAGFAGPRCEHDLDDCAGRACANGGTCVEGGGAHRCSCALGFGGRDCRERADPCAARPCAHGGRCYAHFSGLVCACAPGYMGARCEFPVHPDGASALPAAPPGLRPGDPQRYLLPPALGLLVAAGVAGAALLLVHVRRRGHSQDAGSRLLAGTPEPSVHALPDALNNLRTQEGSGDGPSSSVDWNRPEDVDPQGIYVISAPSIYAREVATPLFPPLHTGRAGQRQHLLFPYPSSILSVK
Method: Cells of the DLL3-expressing small cell lung cancer cell lines H1184 (ATCC, Cat. No. CRL-5858), DLL3/H82, cynoDLL3/CHO-s, and RatDLL3/CHO-s were suspended at 1×10^6/mL in FACS buffer (1% BSA+pH 7.4 PBS), and the cell suspensions were added to a 96-well round-bottom plate (Corning, 3795) at 100 μL/well. The plate was centrifuged at 300 g for 5 min, and the supernatant was removed. Different concentrations of test antibodies were added at 100 μL/well. The plate was incubated in the dark in a refrigerator at 4° C. for 1 h. After 3 washes by centrifugation at 300 g, working concentrations of APC anti-human IgG Fc (BioLegend, 410712) or PE F(ab′)2-goat anti-human IgG (invitrogen, H10104) were added. The plate was incubated in the dark in a refrigerator at 4° C. for 40 min. After 3 washes by centrifugation at 300 g, the geometric mean fluorescence intensity was measured on an Invitrogen flow cytometer, and the EC50 values of the antibodies in binding to DLL3-expressing cells were calculated.

human DLL3 = target: T2, human DLL3 (Homo sapiens, UniProt Q9NYJ7); experiment: Biacore antibody affinity assay, human DLL3; type: binding
T2 construct: purchased ACRO DLL3-H52H4
T2 sequence (Q9NYJ7 27-492 limits assumed): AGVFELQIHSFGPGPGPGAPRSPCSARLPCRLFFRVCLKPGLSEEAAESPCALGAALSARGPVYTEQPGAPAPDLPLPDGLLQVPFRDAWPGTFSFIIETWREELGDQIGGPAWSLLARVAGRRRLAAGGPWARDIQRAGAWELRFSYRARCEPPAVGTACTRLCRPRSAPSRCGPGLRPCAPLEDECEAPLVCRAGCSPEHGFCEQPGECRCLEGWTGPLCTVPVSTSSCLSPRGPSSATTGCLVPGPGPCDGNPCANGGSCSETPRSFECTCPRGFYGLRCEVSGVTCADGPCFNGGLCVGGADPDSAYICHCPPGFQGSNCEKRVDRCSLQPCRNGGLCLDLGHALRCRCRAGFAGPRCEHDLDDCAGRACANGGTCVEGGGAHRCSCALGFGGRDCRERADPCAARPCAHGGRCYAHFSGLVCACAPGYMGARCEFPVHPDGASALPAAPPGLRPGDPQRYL
From the text: Test antibodies were affinity-captured with a Protein A biosensor chip (Cat. #29127556, Cytiva) for 18 seconds, and then the antigens human DLL3 (ACRO, DLL3-H52H4), cynomolgus monkey DLL3 (KACTUS, DLL-RM103), and mouse DLL3 (KACTUS, DLL-MM103) were allowed to flow over the surface of the chip for 180 seconds, followed by 600 seconds of dissociation. Reaction signals were detected in real time using a Biacore 8K (Cytiva) instrument to obtain association and dissociation curves. After the dissociation in each experimental cycle, the biosensor chip was washed and regenerated with a 10 mM glycine-hydrochloric acid solution (pH 1.5) (Cat. #BR-1003-54, Cytiva). A 1:1 model was fit to the data. The results are shown in Table 12-1, Table 12-2, and Table 12-3.

[2] = target: T1, Human DLL3 full-length protein on cells; experiment: cell-based or functional assay

| Molecule | ka (human DLL3) [M⁻¹ s⁻¹] | kd (human DLL3) [s⁻¹] | also measured |
| --- | --- | --- | --- |
| B1 | – | – | EC50 [1]: 0.17 nM; Emax [1]: 2000 |
| B2 | 2.14e+06 | 0.000672 | – |
| B3 | 2.16e+06 | 0.000695 | – |
| B4 | 1.91e+06 | 0.000811 | – |
| B5 | – | – | IC50 (nM), killing of DMS53 (+) cells [2]: 13.1 nM; IC50 (nM), killing of H1184 (+++) cells [2]: 0.11 nM |
| B6 | 718000 | 0.00135 | – |
| B7 | 743000 | 0.00108 | – |
| B8 | – | – | EC50 [1]: 0.14 nM; Emax [1]: 3370 |
